Earlier results in PMC10910082.
pKd: −log10 of the molar value. Where two headings read alike, the source gives them in different places.

Assays:
[1] = target: CD86 (Homo sapiens) (UniProt P42081)
[2] = target: CD80 (Homo sapiens) (UniProt P33681)
[3] = target: CD155 (Homo sapiens) (UniProt P15151)
[4] = target: CD155 (Homo sapiens) (UniProt P15151); remark: listed apart in the source

UniProt P15151, sequence (P15151 21-343): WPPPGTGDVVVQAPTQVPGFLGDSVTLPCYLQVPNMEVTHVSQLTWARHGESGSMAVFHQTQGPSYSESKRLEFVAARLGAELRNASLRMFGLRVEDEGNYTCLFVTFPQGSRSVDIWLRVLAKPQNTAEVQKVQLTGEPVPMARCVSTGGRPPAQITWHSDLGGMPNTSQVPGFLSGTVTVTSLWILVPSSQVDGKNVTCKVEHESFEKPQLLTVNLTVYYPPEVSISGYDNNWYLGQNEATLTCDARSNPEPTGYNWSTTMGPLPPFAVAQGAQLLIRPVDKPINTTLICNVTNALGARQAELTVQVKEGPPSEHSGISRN
UniProt P33681, sequence (P33681 35-242): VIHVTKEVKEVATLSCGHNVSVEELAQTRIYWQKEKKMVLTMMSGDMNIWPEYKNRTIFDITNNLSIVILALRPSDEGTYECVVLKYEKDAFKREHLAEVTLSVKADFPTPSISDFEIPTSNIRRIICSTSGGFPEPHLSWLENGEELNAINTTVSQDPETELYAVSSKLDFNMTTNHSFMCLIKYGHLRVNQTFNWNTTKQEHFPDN
UniProt P42081, sequence (P42081 24-247): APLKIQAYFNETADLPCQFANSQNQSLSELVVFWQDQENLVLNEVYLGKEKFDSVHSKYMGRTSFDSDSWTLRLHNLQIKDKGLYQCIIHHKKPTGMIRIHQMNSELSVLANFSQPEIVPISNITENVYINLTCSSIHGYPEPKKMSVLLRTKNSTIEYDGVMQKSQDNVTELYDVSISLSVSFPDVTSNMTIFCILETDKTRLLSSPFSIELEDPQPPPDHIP

## CD28 (from UniProt P10747)
[1]
  pKd: 4.56
[2]
  pKd: 5.40

## CD226 (from UniProt Q15762)
[3]
  pKd: 6.93

## TIGIT (from UniProt Q495A1)
[4]
  pKd: 8.70
